Data: patent US6867177B2, “CD39/ECTO-adpase as a treatment for thrombotic and ischemic disorders” (The Trustees of Columbia University in the City of New York, priority 1999, dated 2005)

Experiments:
murine platelets = assay: Murine platelet aggregation (aggregometry of platelet-rich plasma from treated mice); type: cell-based; settings: for platelet aggregation response to ADP: ADP 2.5 or 10 μM, CD39 4 mg/kg, aspirin 5 mg/kg; for platelet aggregation response to ADP / platelet aggregation response to collagen / platelet aggregation response to sodium arachidonate: agent given to mice 45 minutes prior to harvest of blood; for platelet aggregation response to collagen: collagen 2.5 or 10 μg/mL; for platelet aggregation response to sodium arachidonate: sodium arachidonate 0.1 mM
Description: Preparation of Murine Platelets: Mice (untreated, treated with 4 mg/kg CD39, or treated with […]) were anesthetized and heparinized (10 U/g), prior to blood collection via cardiac puncture performed with 22 gauge, 1 cc syringe. Immediately following collection, 80 μl 3.8% trisodium citrate was added to each mL of blood. Blood from 6-8 mice was pooled in a 15 mL tube centrifuge tube (Flacon, polypropylene). Platelet-rich plasma (PRP) was prepared with an initial whole blood centrifugation (900 g, 3 min, 20° C., no brake), and a second centrifugation of PRP (100 g, 2 min) to eliminate residual erythrocytes and leukocytes. The stock suspension of PRP was maintained at room temperature. PRP platelet counts were 400-700×10^3 platelets per μl.
Platelet aggregation studies: PRP (200 μl) was pre-incubated (3 min, 37° C.) with 100 μl Tris-buffered saline (TSG) buffer (15 mM Tris, 134 mM NaCl, 5 mM glucose, pH 7.4) in an aggregometer cuvette (Lumiaggregometer; Chrono-Log, Havertown, Pa.). After the 3 min, 37° C. preincubation ≈5.0 C 10^5 platelets, platelet agonist (ADP, collagen, sodium arachidonate) were added at the concentration indicated. Total volumes were adjusted to 300 μl with TSG buffer, and the aggregation response recorded for 2-4 min. Agonists were prepared as 100× solution: ADP was in TSG buffer, collagen in acidified isotonic glucose ([…], Munchen, Germany), and sodium arachidonate in 0.85% saline. All aggregation studies were completed within two hours of blood collection.
Quantitation of Platelet Aggregation: Area under the curve was estimated by multiplying the height of the curve with its width at half height. The former was measured form pre-simulation baseline to the middle of the highest point of the curve. However, when curves were less than ⅓ of maximal height, the lowest point of the shape change portion of the curve was considered baseline. […] These criteria underestimate large aggregation responses, and overestimate small ones. Thus we knowingly underestimated the effects of compounds with great inhibitory capacity. This approach was preferred over one that could have overemphasized inhibitory potential.
Murine platelet aggregation: C57/6J BL mice (6-8 weeks) were obtained from Jackson Laboratories, Bar Harbor, Me.). Untreated mice, and mice treated with 4 mg/kg CD39, with 5 mg/kg aspirin or phosphate buffered saline, were anesthetized and heparinized (10 U/g), prior to blood collection via cardiac puncture; 80 μL 3.8% trisodium citrate was added to each mL of blood. Samples from 6-8 mice were pooled and platelet-rich plasma (PRP) prepared by centrifugation (900 g, 3 min, 20° C., followed by 100 g, 2 min to eliminate residual erythrocytes and leukocytes). PRP contained 400-700×10^3 platelets per μL. PRP (200 μL) was preincubated (3 min, 37° C.) with 100 μL Tris-buffered saline (TSG) buffer (15 mM Tris, 134 mM NaCl, 5 mM glucose, pH 7.4)^11,23,24 in an aggregometer cuvette (Lumiaggregometer; Chrono-Log, Havertown, Pa.). Platelet agonists (ADP, collagen (Hormon Chemie, Munchen, Germany), or sodium arachidonate (Nu-Check Prep, Elysian, Minn.)) were added at the final concentrations indicated. Aggregation responses were recorded for 2-4 min, and expressed as area under the curve (height times width at ½ height). All experiments were completed within two hours of blood collection.

[1] = Measurement of bleeding time (tail vein incision); type: in vivo; settings: mice not subjected to other manipulation; intravenous
Description: Measurement of Bleeding Time: Bleeding times were measured in mice which were not subjected to experimental manipulation other than by receiving either vehicle (saline) or CD39 prepared in physiological saline and administered intravenously 5 minutes prior to the experiment. Following anesthesia, a standardized incision was made on the central dorsal tail vein, and the tail was then immersed in physiological saline at 37.5° C.

[2] = test system: stroke (focal cerebral ischemia and reperfusion); settings: for postischemic cerebral perfusion (cerebral blood flow): laser Doppler, ischemic vs nonischemic hemisphere; for cerebral infarct volume: preoperatively administered, CD39 4 and 8 mg/kg, aspirin 5 mg/kg, 24 hours
[3] = test system: lung ischemia and reperfusion; assay: Mouse model of lung ischemia and reperfusion; type: in vivo, mice; settings: CD39 8 mg/kg; 1 hour ischemia, 2 hour reperfusion, observation 1 hour; four experiments
Description: In these studies, murine ischemic reperfusion model was used. In the mouse model of lung ischemia, mice were initially anesthetized intraperitoneal with 0.1 mg/mouse weight (g) of ketamine and 0.01 mg/mouse weight (g) of xylazine, following by intraperitoneal continuous infusion of one third of the initial dose per hour using a syringe pump (model 100 series, KD Scientific Inc. Mass.). After ensuring appropriate depth of anesthesia, mice were intubated via tracheostomy and placed on a Harvard ventilator (tidal volume=0.75 mL, respiratory rate=120/min) with room air, followed by bilateral thoracotomy. The left hilum was cross-clamped for a period of 1 hour after which the cross-clamp was released. Reperfusion proceeded for 2 hours.
For all experiments, the surgical operator was blinded by a colleague in the laboratory to the specific substance being injected (vehicle or CD39, 8 mg/kg). Experimental procedures were as follows. […]

[4] = peptide affinity purified from CHO conditioned medium; cited from earlier work
[5] = cited from earlier work
platelets = settings: cited from earlier work
[6] = control, CD39-/- and reconstituted CD39-/- mice
[7] = treatment either prior to, or up to 3 hours following stroke

## CC(=O)Oc1ccccc1C(=O)O [aspirin, reference compound]
Murine platelets
  platelet aggregation response to ADP: strongly aggregated
  platelet aggregation response to collagen: strongly aggregated
  platelet aggregation response to sodium arachidonate: abrogated
Murine platelets; any collagen dose
  platelet reactivity to collagen at any collagen dose: little effect
[1]
  bleeding time: markedly increased
[2]
  postischemic cerebral perfusion (cerebral blood flow): did not improve
  cerebral infarct volume: tendency to decrease cerebral infarct volume, the effect was not statistically significant

B1: CD39: recombinant soluble CD39 (SEQ ID NO:2): four apyrase domains, lacking the two transmembrane regions, IL-2 leader, expressed in CHO cells (protein, listed as Homo sapiens)
chain: TQNKALPENVKYGIVLDAGSSHTSLYIYKWPAEKENDTGVVHQVEECRVKGPGISKFVQKVNEIGIYLTDCMERAREVIPRSQHQETPVYLGATAGMRLLRMESEELADRVLDVVERSLSNYPFDFQGARIITGQEEGAYGWITINYLLGKFSQKTRWFSIVPYETNNQETFGALDLGGASTQVTFVPQNQTIESPDNALQFRLYGKDYNVYTHSFLCYGKDQALWQKLAKDIQVASNEILRDPCFHPGYKKVVNVSDLYKTPCTKRFEMTLPFQQFEIQGIGNYQQCHQSILELFNTSYCPYSQCAFNGIFLPPLQGDFGAFSAFYFVMKFLNLTSEKVSQEKVTEMMKKFCAQPWEEIKTSYAGVKEKYLSEYCFSGTYILSLLLQGYHFTADSWEHIHFIGKIQGSDAGWTLGYMLNLTNMIPAEQPLSTPLSHST
[3]
  mouse survival following functional removal of the contralateral (nonischemic) lung: 100%
Stroke in CD39-/- mice; CD39-/- mice reconstituted with CD39, 24 hours
  cerebral infarct volume: markedly diminished
Stroke in CD39-/- mice; [6]
  intracerebral hemorrhage: did not differ between groups
  neurological deficit scores: did not differ between groups
  overall mortality: did not differ between groups
[4]
  apyrase activity: potent apyrase activity
Murine platelets
  platelet aggregation response to ADP: completely abrogated
  platelet aggregation response to collagen: attenuated
  platelet aggregation response to sodium arachidonate: did not inhibit the initial activation phase of platelet aggregation to arachidonate, but rapidly disaggregated platelets during the initial recruitment phase
Murine platelets; higher doses of collagen
  platelet reactivity to higher doses of collagen: do respond
Murine platelets; low-dose collagen
  platelet reactivity to low-dose collagen: inhibited
[5]
  elimination half-time in mice: 2 days
[1]
  bleeding time: dose-dependent increase
[2]; administered three hours after onset of stroke (8 mg/kg)
  cerebroprotection: significant cerebroprotection
[2]; intravenously injected, 111In-labeled platelets, 24 hours of reperfusion
  platelet accumulation in the ipsilateral cerebral hemisphere: inhibited
[2]; intravenously injected, fibrin immunoblot
  fibrin accumulation in the ipsilateral cerebral hemisphere: inhibited
[2]
  postischemic cerebral perfusion (cerebral blood flow): improved
  cerebral infarct volume: dose-dependent diminution
[2]; mouse, in vivo
  intracerebral hemorrhage: without an increase
[2]; [7]
  mortality: reduced
  neurological deficit: reduced
platelets
  ADP-induced platelet aggregation in vitro: blocked
